The source of these data is publication PMC9736959, “Enzyme-Linked Aptamer Kits for Rapid, Visual, and Sensitive Determination of Lactoferrin in Dairy Products”.

The data set addresses lactoferrin (Lf) (bovine (from bovine milk), UniProt P24627 20-708). Put plainly: competition (indirect competitive enzyme-linked aptamer assay against immobilized cDNA S2); linear 25-500 nM Lf, LOD 14.01 nM (not a Kd); aptamer as SA-HRP conjugate; PBS pH 7.2, about 25 °C; Lf and recognition probe 5 min, then 30 min on cDNA-coated plate; PBS-T (0.05% Tween-20) washes. The note with it: protein: commercial; label: biotin; coupled to SA-HRP in the recognition probe; capture strand S2 is not an exact complement (fewer G opposite the C run).

Sequence of lactoferrin (Lf) (P24627 20-708): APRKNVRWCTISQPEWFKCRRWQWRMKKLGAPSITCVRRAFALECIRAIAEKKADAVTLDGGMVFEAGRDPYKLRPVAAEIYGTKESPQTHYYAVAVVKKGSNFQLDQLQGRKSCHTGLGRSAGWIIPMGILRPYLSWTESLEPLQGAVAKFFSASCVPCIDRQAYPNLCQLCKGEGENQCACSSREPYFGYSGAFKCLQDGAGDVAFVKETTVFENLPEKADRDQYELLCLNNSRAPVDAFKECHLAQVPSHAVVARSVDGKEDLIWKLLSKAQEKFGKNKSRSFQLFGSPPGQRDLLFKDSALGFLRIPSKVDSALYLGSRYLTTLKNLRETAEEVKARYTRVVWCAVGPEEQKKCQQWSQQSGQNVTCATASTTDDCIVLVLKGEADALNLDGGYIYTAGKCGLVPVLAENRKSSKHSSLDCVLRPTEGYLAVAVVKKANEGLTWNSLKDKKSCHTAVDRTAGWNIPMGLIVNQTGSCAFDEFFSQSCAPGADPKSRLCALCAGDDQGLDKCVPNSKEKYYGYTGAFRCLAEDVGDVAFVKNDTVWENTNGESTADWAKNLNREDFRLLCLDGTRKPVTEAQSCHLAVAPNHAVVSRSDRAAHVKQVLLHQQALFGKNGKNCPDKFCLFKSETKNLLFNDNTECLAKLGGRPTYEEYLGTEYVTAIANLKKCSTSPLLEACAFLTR

In the case of TGGTGCTGCCCCCCTAGTCTCCGGCTGCTTCTTGG (ssDNA, 5' biotin (so in the source)) [Lf aptamer (biotin-Apt)], the binding result is on record as “binds”.
